Experiment: soluble on expression in E. coli; label from the status in PepcDB or PDB records

Row | Sequence | soluble on expression in E. coli
1 | LTCYGDSGQPVDWFVVYKLPALRGSGEAAQRGLQYKYLDESSGGWRDGRALINSPEGAVGRSLQPLYRSNTSQLAFLLYNDQPPQPSKAQDSSMRGHTKGVLLLDHDGGFWLVHSVPNFPPPASSAAYSWPHSACTYGQTLLCVSFPFAQFSKMGKQLTYTYPWVYNYQLEGIFAQEFPDLENVVKGHHVSQEPWNSSITLTSQAGAVFQSFAKFSKFGDDLYSGWLAAALGTNLQVQFWHKTVGILPSNCSDIWQVLNVNQIAFPGPAGPSFNSTEDHSKWCVSPKGPWTCVGDMNRNQGEEQRGGGTLCAQLPALWKAFQPLVKNYQPCNGMARKPSRAYKI | soluble
2 | MGHHHHHHSHMSDIYQHFRKDERAFIDQALEWKRIVQEQYRMKLTDFLDPREQVILSAVTGQADVGLAFSGGYDRAERKRAILFPEYITPEESDFELQAFNVRYADKFVSVDHRSLLGALMGIGLKRQKFGDIVFSETAVQLIVSADTADFVAAQLTQAGKAAVSLEKIDLSDLNIPAVDVEIRDDTVSSLRLDAVCASMSRQSRQKSQTLVKNGLVKVNWKVVEDPSYIVAEGDMLSIRGFGRCSLTKIEGKTKKDKWRVTFERQK | not soluble
3 | MAVTKSSSLLIVGAGTWGTSTALHLARRGYTNVTVLDPYPVPSAISAGNDVNKVISSGQYSNNKDEIEVNEILAEEAFNGWKNDPLFKPYYHDTGLLMSACSQEGLDRLGVRVRPGEDPNLVELTRPEQFRKLAPEGVLQGDFPGWKGYFARSGAGWAHARNALVAAAREAQRMGVKFVTGTPQGRVVTLIFENNDVKGAVTADGKIWRAERTFLCAGASAGQFLDFKNQLRPTAWTLVHIALKPEERALYKNIPVIFNIERGFFFEPDEERGEIKICDEHPGYTNMVQSADGTMMSIPFEKTQIPKEAETRVRALLKETMPQLADRPFSFARICWCADTANREFLIDRHPQYHSLVLGCGASGRGFKYLPSIGNLIVDAMEGKVPQKIHELIKWNPDIAANRNWRDTLGRFGGPNRVMDFHDVKEWTNVQYRDISKL | soluble
4 | MIQRNSTLAVLRESFVAGSDENLSPIMHHLWKMEGGAIYFCRSGWAHVTIDLKEYEIVKNTQVVLLPGSIIRINGSSSDFTASFFGFPKDMFREACLRLEPTFFRFMKEKPCYVLPDKDTGAINGLIQATTAIYNDRENRFRNQIAKNHLQSFMLDIYDKCYRYFDKQEIEGGSRQDEIFKKFVALVHENCISQREVNFYANELCISTKYLTGICRSVTGDSAKKIIDDFAILEIKVLLQSTELTMQDIADRLGFPDQSYLGRYFKRHEGMSPREYQNRYVI | not soluble
5 | MTWPAFSLGVWGYPERMDPRVPPGQFVTERFPILTYGETPKVAKEAWRLEVTGLVETPLVLTYEDLLARPQVELTRDFHCVTRWSRLDVTWKGVRTRDLLEEARPRPEAVAALVESYGGYTTNLLLEDLLREDVLLAHTLFGKPLPPERGGPVRLLVPHLYAWKSAKWVRRIVLLDHLELGFWERLGYHWRGDPWKEERFQEGPVPAHRIRFAARNKPGR | soluble
6 | MKLDAKSTIETGKAILGIELGSTRIKAVLIDQENKPIAQGSHTWENQLVNGLWTYSIDAIWSGLQDCYADLRSNVKKLYDTEIETLAAIGVSAMMHGYMPFNEKEEILVPFRTWRNTNTGRAAAELSELFVYNIPLRWSISHLYQAILDNEAHVKDIKFLTTLAGYVHWQITGEKVLGIGDASGMLPIDPTTNNYSAEMVAKFNNLIASKEYSWKLEDILPKVLSAGENAGVLTPEGCKKLDASGHLKAGIPVCPPEGDA | not soluble
7 | MGNAAAYQRYRRPDCATEIDFSTENHSGREKIMSESLSWMQTGDTLALSGELDQDVLLPLWEMREEAVKGITCIDLSRVSRVDTGGLALLLHLIDLAKKQGNNVTLQGVNDKVYTLAKLYNLPADVLPR | not soluble
8 | TSSTIFSGVAIYVNGYTDPSAEELRKLMMLHGGQYHVYYSRSKTTHIIATNLPNAKIKELKGEKVIRPEWIVESIKAGRLLSYIPYQLYT | soluble
9 | MFTCKVNEHITIRLLEPKDAERLAELIIQNQQRLGKWLFFAENPSSADTYRETIIPDWRRQYADLNGIEAGLLYDGSLCGMISLHNLDQVNRKAEIGYWIAKEFEGKGIITAACRKLITYAFEELELNRVAICAAVGNEKSRAVPERIGFLEEGKARDGLYVNGMHHDLVYYSLLKREWEGEKLEHHHHHH | not soluble
10 | GPGSMKATIITPGETYRILAPASSLHKYLTDSYWCSAMEEVCEGKLDGVAVRYTGQQLVLLQFRPKQLSPAGYRYPISMSIPVEYLVPISTEESTEDHNICKHDTNYGTKESTFLGSGFAPLCVVCGRYNVPGMVLRHHGYKCPECVGHKSTRKLRMEGARRR | not soluble
11 | MDFSCGAASIATLLNNFYGRHYSEAEILDKMDKTQMRASFDDMQRIMPELGFEAQGYALPFEQLVQLKIPVIVYLKYRKNNHFSVLNGINGETVLLADPSLGHVSMSKSQFLSAWKTRDGEMEGKILAIVPKNTDFVRNQMFFNKNPVRQTRFTVEQIQMRQKR | not soluble
12 | MSGLPQGRPTFGAAQNVSAVVAYDLSAHMLDVVAQAAEARQLKNITTRQGYAESLPFADNAFDIVISRYSAHHWHDVGAALREVNRILKPGGRLIVMDVMSPGHPVRDIWLQTVEALRDTSHVRNYASGEWLTLINEANLIVDNLITDKLPLEFSSWVARMRTPEALVDAIRIYQQSASTEVRTYFALQNDGFFTSDIIMVDAHKAALEHHHHHH | not soluble
13 | MAHHHHHHMTYYTVEEITDRRINENDGAIEYAVKWEGVAGELTWEKRHQLTENCAETVQAVDQRCMDATDEELERWRDGKWKRGAKRAHDAPPLVGTTTERRKRSRSVSPAAGEDLEQVEVLNGLLLRPPCGAQNAEEEGTILMLGEVVLAEEASAILNGTGSYRKKCRTATVSTAVAFHTAPALDIEKRWRGIHGQSLLHSIEVAQSITPFHPHFRLHGCDPATRCAMALEVERSSHLRIISIAPPLMTHSGAVFGLPVALDPLVGEKDVEQLRQSVQLESPLFGSAAQELVKPHVEQMVVRYIIPEVTPATDDDTATPTTELFPVHGRIASMPLSVFRVVFPQLLIDYLLTNSVVLR | not soluble
14 | MGSDKIHHHHHHMTNLTSTHEVLAIGRLGVDIYPLQSGVGLADVQSFGKYLGGSAANVSVAAARHGHNSALLSRVGNDPFGEYLLAELERLGVDNQYVATDQTFKTPVTFCEIFPPDDFPLYFYREPKAPDLNIESADVSLDDVREADILWFTLTGFSEEPSRGTHREILTTRANRRHTIFDLDYRPMFWESPEEATKQAEWALQHSTVAVGNKEECEIAVGETEPERAGRALLERGVELAIVKQGPKGVMAMTKDETVEVPPFFVDVINGLGAGDAFGGALCHGLLSEWPLEKVLRFANTAGALVASRLECSTAMPTTDEVEASLNQKV | not soluble
15 | MTVVKEELKEALEMLKNTGVRITPQRHAILEYLVESMTHPTADDIYKALEGKFPNMSVATVYNNLRVFKEVGLVKELTYGDASSRFDYVTSQHYHVICEKCGKIVDFPYGGLEKLEEEAAKTTGFVINSHRLEIYGVCPECHKA | not soluble
16 | MRAQDLPPLPETPGVYLWKRGEEVLYVGKAKSLRARVKSYFHAEGKARRIAEEATGLDFIATRDEVEALLLEANLIKAHRPLYNVLLKDDKHYPFLKLTNEPFPTLLVVRRVEEDGAKYYGPFPEAGALRRIKTLIDRLFPLRKNSGYPMKRRRYPCLNYSMGRCLAPCVGKADPEAYQEVVRQVEAVLEGRVDGLLQELEAKMREAARRLEFERAAEIRDQMEALRAFFSTDQQAFDPEMGDLDFLGMARSGALAVVQLYQVRSGRILGRISRVVEKEEATDEEILWAFLRDHYLEASPLPPLVLLPFPLEDLESLAELLKRRAGRKVELRVPKKGEKARLLELAERNARLALETELKLRERRGEHPALKALQDLLGLPARPWRLEGYDISHLQGQARVFSIAVFEGGRPKRQEYRRMRLKAGNDDYAAMEEGVFRRYTGSLKDLPLPDLLLIDGGVGQVRAAARALERAGLRLPLVGLAKGEEVLVTPEGRELRLPLTHPALQLLIHLRDEAHQNGLRYHRKRRSEELFRVLQGIPGIGEKRRRLLLERYGGLRALKEAPLEELARLPGMSLEAARALKAALAEEEPA | soluble
17 | MRNGISPIIIDNTNLHAWEMKPYAVMALENNYEVIFREPDTRWKFNVQELARRNIHGVPKEKIQRMKERYEHNVTFHSVLHAEKPSRANRNQGRNSEPSSGSGYWNTYTELPNRRANGLYSNEGYRRGGHHQGY | not soluble

From the DeepSol protein solubility set
